Test results as given in article PMC8790524, “Probing the binding of interleukin-23 to individual receptor components and the IL-23 heteromeric receptor complex in living cells using NanoBRET” (Cell Chemical Biology, 2022).
Several values for one entry are separate records, joined by “and”; a condition that tells them apart may be missing. Equal entries are not always repeated.

T1: NanoLuciferase-tagged full-length IL23R (UniProt Q5VWK5 24-629)
T1 construct: IL-23 receptor (IL23R), full-length, synthesised without its endogenous signal peptide; Gly-Ser-Arg linker between NanoLuciferase and its N terminus; Open reading frame: N-terminal IL-6 secretion signal, NanoLuciferase, Gly-Ser-Arg, IL23R; in a pNLF vector; also called NL-IL23R; IL6SS-NL-IL23R; source: HEK293T, transiently transfected, on living cells; not shown: NanoLuciferase, N-terminal, kept
T1 sequence (looked up): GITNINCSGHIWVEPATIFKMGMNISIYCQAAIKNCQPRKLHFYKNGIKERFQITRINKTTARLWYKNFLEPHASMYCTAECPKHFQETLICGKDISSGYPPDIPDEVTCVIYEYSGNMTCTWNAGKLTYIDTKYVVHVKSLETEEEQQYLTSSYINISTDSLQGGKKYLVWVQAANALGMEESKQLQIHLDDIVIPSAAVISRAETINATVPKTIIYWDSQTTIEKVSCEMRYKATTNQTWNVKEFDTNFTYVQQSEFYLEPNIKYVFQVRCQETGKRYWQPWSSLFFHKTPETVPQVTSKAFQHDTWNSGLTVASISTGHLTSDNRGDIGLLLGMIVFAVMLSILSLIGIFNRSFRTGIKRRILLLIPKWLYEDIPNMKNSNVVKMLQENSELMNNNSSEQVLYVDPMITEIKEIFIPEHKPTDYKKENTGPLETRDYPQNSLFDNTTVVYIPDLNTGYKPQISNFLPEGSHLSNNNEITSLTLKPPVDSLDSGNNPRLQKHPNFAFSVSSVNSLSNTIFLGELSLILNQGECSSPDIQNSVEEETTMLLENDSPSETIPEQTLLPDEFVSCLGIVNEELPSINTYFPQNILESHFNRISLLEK

B1: Recombinant IL-23 protein (unlabeled) (ligand)
chain 1: RAVPGGSSPAWTQCQQLSQKLCTLAWSAHPLVGHMDLREEGDEETTNDVPHIQCGDGCDPQGLRDNSQFCLQRIHQGLIFYEKLLGSDIFTGEPSLLPDSPVGQLHASLLGLSQLLQPEGHHWETQQIPSLSPSQPWQRLLLRFKILRSLQAFVAVAARVFAHGAATLSP
chain 2: IWELKKDVYVVELDWYPDAPGEMVVLTCDTPEEDGITWTLDQSSEVLGSGKTLTIQVKEFGDAGQYTCHKGGEVLSHSLLLLHKKEDGIWSTDILKDQKEPKNKTFLRCEAKNYSGRFTCWWLTTISTDLTFSVKSSRGSSDPQGVTCGAATLSAERVRGDNKEYEYSVECQEDSACPAAEESLPIEVMVDAVHKLKYENYTSSFFIRDIIKPDPPKNLQLKPLKNSRQVEVSWEYPDTWSTPHSYFSLTFCVQVQGKSKREKKDRVFTDKTSATVICRKNASISVRAQDRYYSSSWSEWASVPCS
modifications: several mass peaks differing by 162 Da, most likely N-linked glycosylation
notes: IL23p19, the alpha subunit of IL-23, disulfide-linked to IL12p40; IL12p40, the beta subunit of IL-23, disulfide-linked to IL23p19; also called interleukin-23; unlabeled IL-23; source: HEK293-F, co-transduced with BacMam viruses (p19-His and p40), purified from the supernatant (Ni-Sepharose); gift of GlaxoSmithKline
B2: TAMRA-conjugated IL-23 (ligand)
chain 1: B1 chain 1
chain 2: B1 chain 2
modifications: TAMRA (5(6)-carboxytetramethylrhodamine, coupled as NHS ester); 64.9% of TAMRA labels were located on IL23p19; sites not stated | TAMRA (labelled to a lesser extent than IL23p19; sites not stated); several mass peaks differing by 162 Da, most likely N-linked glycosylation
notes: IL23p19, the alpha subunit of IL-23, disulfide-linked to IL12p40; IL12p40, the beta subunit of IL-23, disulfide-linked to IL23p19; A mixture: by LC-MS 52.3% unlabeled, 29.5% single and 18.2% double labeled; by FCS/PCH 39.6% mono-labeled, 11.9% multi-labeled, 48.5% unlabeled; also called IL23-TMR; TAMRA-tagged IL-23; source: HEK293-F, co-transduced with BacMam viruses (p19-His and p40), purified …

How the values were obtained:
[1] = target: T2, NL-IL23R co-expressed with untagged IL12Rβ1 (heteromeric IL-23 receptor complex) (UniProt Q5VWK5 24-629; P42701-1 24-662); experiment: FRET or BRET; NanoBRET competition on living HEK293T cells co-transfected with NL-IL23R and IL12Rβ1: titration of unlabelled IL-23 against several concentrations of IL23-TMR; HBSS with 1 mg/ml BSA, 1 h; Ki by Cheng-Prusoff or by linear regression of IC50 against IL23-TMR concentration; conditions: one partner purified
T2 construct: IL-23 receptor (IL23R), full-length, synthesised without its endogenous signal peptide; Gly-Ser-Arg linker between NanoLuciferase and its N terminus; IL-12 receptor subunit β1 (IL12Rβ1), untagged, from the Origene expression plasmid; also called NL-IL23R:IL12Rβ1 receptor complex; NL-IL23R and IL12Rβ1; source: HEK293T, transiently co-transfected (1 μg of each plasmid), on living cells; not shown: …

[2] = target: T2, NL-IL23R co-expressed with untagged …; experiment: cell-based or functional assay
[3] = target: wild-type IL23R heteromer (IL23R and IL12Rβ1) (UniProt Q5VWK5-1 24-629; P42701-1 24-662); experiment: cell-based or functional assay
[4] = target: T3, NL-IL23R co-expressed with SNAP-tag fused IL12Rβ1 (UniProt Q5VWK5 24-629; P42701 24-662); experiment: cell-based or functional assay
[5] = target: NL-IL12Rβ1 co-expressed with HaloTag-IL23R (UniProt P42701 24-662; Q5VWK5 24-629, HaloTag NanoBRET 618 ligand bound to the HaloTag); experiment: cell-based or functional assay
[6] = target: T4, NL-IL23R co-expressed with HaloTag fused IL12Rβ1 (UniProt Q5VWK5 24-629; P42701 24-662); experiment: cell-based or functional assay
[7] = target: T5, NanoLuciferase-tagged full-length IL12Rβ1 (UniProt P42701 24-662); experiment: FRET or BRET; NanoBRET saturation binding of IL23-TMR to living HEK293T cells transiently expressing the NL-fused receptor (alone or 1:1 with the partner receptor plasmid); HBSS with 1 mg/ml BSA, 1 h, 37.5°C; non-specific binding with an excess of unlabelled IL-23 (50 nM to 1 μM); conditions: one partner purified
T5 construct: IL-12 receptor subunit β1 (IL12Rβ1), full-length, synthesised without its endogenous signal peptide; Gly-Ser-Arg linker between NanoLuciferase and its N terminus; Open reading frame: N-terminal IL-6 secretion signal, NanoLuciferase, Gly-Ser-Arg, IL12Rβ1; in a pNLF vector; also called NL-IL12Rβ1; IL6SS-NL-IL12Rβ1; source: HEK293T, transiently transfected, on living cells; not shown: …

[8] = target: T6, NL-IL12Rβ1 co-expressed with unlabeled IL23R (UniProt P42701 24-662; Q5VWK5-1 24-629); experiment: as above; conditions: one partner purified
T6 construct: IL-12 receptor subunit β1 (IL12Rβ1), full-length, synthesised without its endogenous signal peptide; Gly-Ser-Arg linker between NanoLuciferase and its N terminus; IL-23 receptor (IL23R) from the Origene IL23R-MYCDDK expression plasmid; called unlabeled or untagged in the results; also called NL-IL12Rβ1:IL23R complex; NL-IL12Rβ1 + IL23R; source: HEK293T, transiently co-transfected (1:1 or 1:10 …)

[9] = target: T2, NL-IL23R co-expressed with untagged …; experiment: as above; conditions: one partner purified
[10] = target: T3, NL-IL23R co-expressed with SNAP-tag …; experiment: as above; conditions: one partner purified
[11] = target: T1, NanoLuciferase-tagged full-length IL23R; experiment: as above; conditions: one partner purified
[12] = target: T4, NL-IL23R co-expressed with HaloTag …; experiment: as above; conditions: one partner purified
[13] = target: T6, NL-IL12Rβ1 co-expressed with unlabeled …; experiment: FRET or BRET; NanoBRET saturation binding of IL23-TMR to living HEK293T cells transfected with NL-IL12Rβ1 and IL23R at a 1:10 ratio (2.2 μg total DNA per well); HBSS with 1 mg/ml BSA, 1 h; non-specific binding with 100 nM unlabelled IL-23; conditions: one partner purified

| Binder | Ki [1] | potency (EC50) of IL-23 for STAT3 phosphorylation (Tyr705, AlphaLISA SureFire Ultra), HEK293T cells, 30 min [2] | EC50 of IL-23 for STAT3 phosphorylation (Tyr705, AlphaLISA SureFire Ultra), HEK293T cells, 30 min [3] | EC50 of IL-23 for the increase in intra-receptor BRET between NL-IL23R and SNAP-IL12Rβ1 (AF488) [4] | potency (EC50) of IL-23 for STAT3 phosphorylation (Tyr705, AlphaLISA SureFire Ultra), HEK293T cells, 30 min [4] | EC50 of IL-23 for the increase in intra-receptor BRET between NL-IL12Rβ1 and HaloTag-IL23R [5] | EC50 of IL-23 for the decrease in intra-receptor BRET between NL-IL23R and HaloTag-IL12Rβ1 (HT618) [6] | potency (EC50) of IL-23 for STAT3 phosphorylation (Tyr705, AlphaLISA SureFire Ultra), HEK293T cells, 30 min [6] | Kd [1] | Kd [7] | KD of the high-affinity site (two-site fit) [8] | KD of the low-affinity site (two-site fit) [8] | Kd [8] | Kd [9] | Kd [10] | Kd [11] | Kd [12] | Kd [13] |
| --- | --- | --- | --- | --- | --- | --- | --- | --- | --- | --- | --- | --- | --- | --- | --- | --- | --- | --- |
| B1 | 0.0316 nM and 0.0272 nM | 0.154 nM | 0.269 nM | 0.0429 nM | 0.15 nM | 0.457 nM | 0.0436 nM | 0.199 nM |  |  |  |  |  |  |  |  |  |  |
| B2 |  |  |  |  |  |  |  |  | 0.0351 nM | 30.1 nM | 0.028 nM | 72 nM | 46.7 nM | 0.027 nM | 0.454 ± 0.043 nM | 222 nM | 0.179 ± 0.008 nM | 0.647 nM |
